These results are taken from US20230321241A1, “CANCER PEPTIDE VACCINE AND METHOD OF PREPARING THE SAME” (BrightPath Biotherapeutics Co., Ltd., priority 2020, published 2023).

Series [1] can be described thus: Test Example 3: peptide stability in solution (HPLC). Type of series: physicochemical. The settings on record: for % difference vs T = 0 / Conc.: buffers as Table 3. On the procedure: Based on the results of Test Example 1 and Test Example 2, the stability of the peptides was examined. First, peptide drug substances (purity 95 w/w % or more, PPL) were dissolved in the buffers shown in Table 3, respectively, to prepare peptide solutions of the peptides of SEQ ID NOs: 1 to 4 at the final concentration of 10 mg/mL. […] In the evaluation, samples were collected at the time of preparation of the peptide solution, after 24 hours, and after 48 hours, and stored at −20° C. The peptide concentration was measured by HPLC after all the samples were collected, and compared with the peptide concentration at the time of preparation (T=0).

The nature of series [2]: Test Example 1: examination of peptide solubility in citrate/phosphate buffers. Type of series: physicochemical. Particulars: room temperature 24 hours. On the procedure:
The solubility of a peptide drug substance (purity 95 w/w % or more, PPL) was examined for the peptides Asn-Val-Leu-His-Phe-Phe-Asn-Ala-Pro-Leu (SEQ ID NO: 1), Ala-Ser-Leu-Asp-Ser-Asp-Pro-Trp-Val (SEQ ID NO: 2), Lys-Leu-Lys-His-Tyr-Gly-Pro-Gly-Trp-Val (SEQ ID NO: 3), and Leu-Leu-Gln-Ala-Glu-Ala-Pro-Arg-Leu (SEQ ID NO: 4), respectively. First, 10 mM citrate buffers (Citrate) or phosphate buffers (Phosphate) containing 270 mM trehalose from pH 3.0 to pH 8.0 were prepared and the peptide drug substance was added to each buffer so as to provide a predetermined peptide concentration. The mixture was stirred and allowed to stand at room temperature for 24 hours to evaluate whether the peptide drug substance was dissolved.

A short description of series [3]: Preparation Example 2: stability of lyophilized peptide cocktail preparation. Type of series: physicochemical. The settings on record: T = 1 (1 month at 25° C., humidity 60%). On the procedure: To produce a lyophilized peptide cocktail preparation and confirm the stability of the preparation, 500 mL of a peptide cocktail preparation was prepared in the same manner as in Example 1, and then the preparation was aseptically filled to a glass vial at 1 mL per vial and lyophilized to provide a lyophilized peptide cocktail preparation. Then, immediately after the preparation (T=0) or after storage at room temperature (25° C., humidity 60%) for 1 month from the preparation (T=1), 1 mL of purified water was added to the lyophilized preparation to dissolve the peptides. Appearance, solubility, peptide stability, and pH were evaluated.

Series [4] can be described thus: Example 1: peptide cocktail preparation standing at room temperature for 6 hours. Type of series: physicochemical. The settings on record: for HPLC analysis: peptide concentration: in peptide cocktail preparation of Example 1 (with GM-CSF). On the procedure:
Using the lyophilized peptide preparations produced in Preparation Example 1, a peptide cocktail preparation to be administered was prepared as follows. First, 1 mL of purified water was added to each lyophilized peptide preparation, and the lyophilized product in the vial was dissolved to prepare a peptide solution. All the peptide solutions were collected from the respective vials and transferred to a different vial to provide a peptide cocktail preparation. Also, a GM-CSF lyophilized preparation (product name: Lukine ([…]), Sanofi) was dissolved in 1 mL of purified water and 0.6 mL of the solution thus obtained was added as an adjuvant to 1.4 mL of the peptide cocktail preparation to provide a peptide cocktail preparation to be administered. Then, the peptide cocktail preparation thus obtained was allowed to stand at room temperature for 6 hours, and evaluated for changes in peptide concentration, pH (25° C.), and osmotic pressure compared with those before standing.

The subject of series [5] is PD-L1-Positive Non-Small-Cell Lung Cancer. The settings on record: pembrolizumab alone in similar subjects; cited from earlier work.

Where no end group is shown, it is not given here.

Take LLQAEAPRL [SEQ ID NO: 4]: the “% difference vs T = 0” value in series [1] (T = 24 h, 25° C./60% RH) is given as −1%; in series [1] (T = 24 h, 40° C./75% RH) it was 1%; in series [1] (T = 48 h, 25° C./60% RH), −4%; in series [1] (T = 48 h, 40° C./75% RH), −1%. Further, the Conc. in series [1] (T = 24 h, 25° C./60% RH) was determined as 10470 µg/mL; in series [1] (T = 24 h, 40° C./75% RH), 10680 µg/mL; in series [1] (T = 48 h, 25° C./60% RH) it was 10160 µg/mL; in series [1] (T = 48 h, 40° C./75% RH), 10470 µg/mL. Moreover, in series [1] (time of preparation, buffers: SEQ1 pH 3.5 50 mM Gly-HCl + 200 mM trehalose, SEQ2 pH 4.0, SEQ3 pH 7.0, SEQ4 pH 6.0 in 10 mM citrate + 270 mM trehalose), the “T0 Conc.” value is on record as 10.61 mg/mL. Also, the “result (whether peptide drug substance was dissolved)” value in series [2] (10 mM Citrate pH 3.0, 270 mM trehalose, final conc. 20 mg/mL) was “dissolved”; in series [2] (10 mM Citrate pH 3.5, 270 mM trehalose, final conc. 20 mg/mL), “dissolved”; in series [2] (10 mM Citrate pH 4.0, 270 mM trehalose, final conc. 28.6 mg/mL), “dissolved”; in series [2] (10 mM Citrate pH 5.0, 270 mM trehalose, final conc. 20 mg/mL), “dissolved”; in series [2] (10 mM Citrate pH 6.0, 270 mM trehalose, final conc. 28.6 mg/mL) it was “dissolved”; in series [2] (10 mM Phosphate pH 7.0, 270 mM trehalose, final conc. 25 mg/mL), “dissolved”. Also, the “result (whether peptide drug substance was dissolved)” value is recorded as “dissolved” in series [2] (10 mM Phosphate pH 7.5, 270 mM trehalose, final conc. 25 mg/mL) and “dissolved” in series [2] (10 mM Phosphate pH 8.0, 270 mM trehalose, final conc. 25 mg/mL). Besides, the “change in peptide amount % vs T = 0 (100%) (HPLC analysis)” value in series [3] is on record as “SEQ ID NO: 4: 101.2%”. Also, the “HPLC analysis: peptide concentration” value in series [4] (T = 0 hour) is listed as “SEQ ID NO: 4: 2.8 mg/mL”; in series [4] (T = 6 hours, room temperature), 3.0 mg/mL. In addition, the “HPLC analysis: % vs T0” value in series [4] (in peptide cocktail preparation of Example 1, T = 6 hours, room temperature) worked out at 106.4%.

On to “pembrolizumab: anti-PD-1 antibody (Merck & Co., Inc.)”, for which, in series [5], the response rate is 45%.
